Test: yeast display, Sf9 membrane polyspecificity reagent, FACS + sequencing; frameworks hold sequencing errors
In short: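 Nanobodies from a synthetic yeast display library (Saccharomyces cerevisiae BJ5465), induced 36–48 hours with galactose, were stained 1 hour at 4 °C with 10% biotinylated, detergent-solubilized Sf9 membrane reagent, enriched on streptavidin microbeads, then FACS-sorted. Anti-HA (expression) and streptavidin (reagent binding) fluorescence set low and high (top ~1%) gates. Polyreactivity labels come from the gate of origin. Genes were colony-PCR amplified, MiSeq 2 × 250 sequenced and filtered by CDR length.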

Sequence	polyreactivity (PSR sort gate)
QVQLVESGGGLVQAGGSLRLSCAASGFTFWYYVMGWYRQAPGKERELVAAITSSGDSTYYADSVKGRFTISRDNAKNTVYLQMNSLKPEDTAVYYCAAQRYPFERDYWGQCTQVTVSS	high polyreactivity
QVQLVESGGGLVQAGGSLRLSCAASGFTFYANAKGWYRQAPGKERELVAAIDQSGTSTNYADSVKGRFTISRDNAKNTVYLQMNSLKPDDTAVYYCAADSSFYYYPLILFWGDYWGQGTQVTVSS	low polyreactivity
QVQLVESGGGLVQAGGSLRLSCAASGFTFYAYAMGWYRPAPGKERELVAGISWSGGSTYYADSVKGRFTISRDNAKNTVYLQMNSLKPEDTAVYYCAAYSIAELWEYYYWGQGTQVTVSS	low polyreactivity
QVQLVESGGGLVQAGGSLRLSCAASGFTFYDNAMGWYRQAPGKERELVAAITSNGVNTHYADSVKGRFTISRDNAKNTVYLQMNSLKPEDTAVYYCAADRDPEVTYQKYEYWGQGTQVTVSS	low polyreactivity
QVQLVESGGGLVQAGGSLRLSCAASGFTFYDYAMGWYRQAPGKERELVAAISSGTSTYYADSVKGRFTISRDNAKNTVYLQMNSLKPEDTAVYYCAAAGNRPWSITPVRKRYGYNYWGQGTQVTVSS	high polyreactivity
QVQLVESGGGLVQAGGSLRLSCAASGFTFYDYAMGWYRQAPGKERELVAVITRRGGSTYYADSVKRRFTISRDNAKKTVDLQMNSLKPEDTAVYDCAADWRGWSFVRGDDYWGHGTQVTVSS	high polyreactivity
QVQLVESGGGLVQAGGSLRLSCAASGFTFYDYSMGWYRQAPGTERELVAASSDSGGITYYADSVKGRFTISRDNAKNTVYLQMNRLKPEDTAVYYCAADFATPGPEYDYWGQGTQVTVSS	low polyreactivity
QVQLVESGGGLVQAGGSLRLSCAASGFTFYFYAMGWYRQAPGKERELVAAISRGGSTTYADSVKGRFTISRDNAKNTVYLQMNSLIPEDTAVSYCKADIYTWFQIGGYQYDYWGQGTQVTVSS	low polyreactivity
QVQLVESGGGLVQAGGSLRLSCAASGFTFYGNAMGWYSQAPGKERELVAAISSGGSTNYADSVKGRFTISRDNAQNTVSLQMNSLKPEDTAVYYCAASSPRQVSFPYASIGFDYWGQGTQVTVSS	low polyreactivity
QVQLVESGGGLVQAGGSLRLSCAASGFTFYGYAMAWYRQAPGTERELVAAITRRGGNTYYADSVKGRFTISRDNAKNTVYLQMNSLKPEDTAVYYCNAVLRYGHGPYQKGDYWGQGSQVTVSS	high polyreactivity
QVQLVESGGGLVQAGGSLRLSCAASGFTFYGYAMGWYRQAPGKERELVAAITSGGITNYADSVKGRFTISRDNAKNTVYLQMNSLKPEDTAVYYCNVKRRVSGYYGYKYYYWGQGTQVTVSS	high polyreactivity
QVQLVESGGGLVQAGGSLRLSCAASGFTFYGYAMVWYRQAPGKERELLAAITFRGDRTYYADSVKGRFTISRDIAKNTVYLQMNSLKPEDTAVYYCAAERPSGWYSYLSLYIVRRGYWGQGTQVTVSS	low polyreactivity
QVQLVESGGGLVQAGGSLRLSCAASGFTFYHNALGWYRQAPGKERELVATITARGGRTYYADSVKGRFTISRDNAKNTVYLQMNSLKPEDTAVYYCNVKASRGYTYEYDYWGQGTQVTVSS	high polyreactivity
QVQLVESGGGLVQAGGSLRLSCAASGFTFYHYAMGWYRPAPGKERELVAAISKSGGRTYYADSVKGRFTISRDNAMYTVYLQMNSLKPEDTAVYYFNAAYRTTSYENDYWGQGTQVTVSS	low polyreactivity
QVQLVESGGGLVQAGGSLRLSCAASGFTFYHYAMGWYRQAPGKEREFVAAISASGGSTYYADSVKGRFTISRDNAKNTVYLQMNSLKPEDTAVYYCNARYYYFSVRYKYDFNYWGQVTQVTVSS	high polyreactivity
QVQLVESGGGLVQAGGSLRLSCAASGFTFYHYAMGWYRQAPGKERELGAAISRSGGSTYYADSVKGRFTISRDNAKNTVYLQMNSLKPEDTAVYYCAKVLRAKNSFDYWGQGTQVTVSS	high polyreactivity
QVQLVESGGGLVQAGGSLRLSCAASGFTFYIYAMGWYRQAPGKERELVAAITGSGGRTYYADSVKGRFTISRDTAKNTVYLQMNSLKPEDTAVYYCAADKYRRGLAGAVARVNYWGQGTQVTVSS	high polyreactivity
QVQLVESGGGLVQAGGSLRLSCAASGFTFYIYAMGWYRQAPGKERELVAGIDYSGGSTYYADSVKGRFTISRDNAKNTVYLQMNSLKPEDTAVYYCARYGPYQSSYHYDYWGQGTQVTVSS	high polyreactivity
QVQLVESGGGLVQAGGSLRLSCAASGFTFYIYAMGWYRQAPGKERELVARISSGGRTYYADSVKGRFTISRDNAKNTVYLQMNRLKPEDTAVYDCHFWYGSWGQGTQVTVSS	low polyreactivity
QVQLVESGGGLVQAGGSLRLSCAASGFTFYIYAMGWYRQAPGKERELVARISSGGRTYYADSVKGRFTISRDNAKNTVYLQMNSLKPEDTAVFDCHFWYGSWGQGTQVTVSS	low polyreactivity
QVQLVESGGGLVQAGGSLRLSCAASGFTFYKNAMGWYRQAPGKERELVAAITSSGGSTYYADSVKGRFTISRDNAKNTVYLQMNSLKPEDTAVYYCAARASRPRFGYWGQGTQVTVSS	high polyreactivity
QVQLVESGGGLVQAGGSLRLSCAASGFTFYKNTMGWYRQAPGKERELVAAISSSGSSTYYADSVKGRFTISRDNAKNTVYLQMNSLKPEDTAVYYCAAVYRSWTSYNGRNYWGQGTQVTVSS	high polyreactivity
QVQLVESGGGLVQAGGSLRLSCAASGFTFYKYAMGWYRQAPGKERELVAAINWSGGSTYYADSVKGRFTISRDNAKNTVYLQMNSLKPEDTAVYYCAAERGTTYAYDYWGQGTQVTVSS	high polyreactivity
QVQLVESGGGLVQAGGSLRLSCAASGFTFYKYAMGWYRQAPGKERELVATISWSGARTYYADSVKGRFTISRDNAKNTVYLQMNSLKPEDTAVYYCNARRAYRWKPYTGSAGMDYWGQGTQVTVSS	high polyreactivity
QVQLVESGGGLVQAGGSLRLSCAASGFTFYKYVMGWYRQAPGKERELVAAITQGGGSTYYADSVKGRFTISRDNAKNTVYLQMNSLKPEDTAVYYCNARNGYGIGYWGQGTQVTVSS	high polyreactivity
QVQLVESGGGLVQAGGSLRLSCAASGFTFYLYAMGWYRQAPGKERELVAAINSGSSTYYADSVKGRFTISRDNAKNTVYLQMNSLKPEDTAVYYCATDTDRTMDYWGQGTQVTVSS	low polyreactivity
QVQLVESGGGLVQAGGSLRLSCAASGFTFYLYAMGWYRQAPGKERELVAAINSGSSTYYADSVKGRFTISRDNAKNTVYLQMNSLNPEDTAVYYCATDTDRTMDYWGQGTQVTVSS	low polyreactivity
QVQLVESGGGLVQAGGSLRLSCAASGFTFYLYAMGWYRQAPGKERELVAAITGRGTRTYYADSVKGRFTISRDNAKNTVYLQMNSLKPEDTAVYYCATGGANVDGDAYDYWGQGTQVTVSS	high polyreactivity
QVQLVESGGGLVQAGGSLRLSCAASGFTFYLYAMGWYRQAPGKERELVAASTWSGGRTYYADSVKGRFTISRDNAKNTVYLQMNSLKPEDTADYYCAVDGFRGRSHGANDFWGQGTQVTVSS	high polyreactivity
QVQLVESGGGLVQAGGSLRLSCAASGFTFYLYTMGWYLQAPGKERELVATITSDGGTNYADSVKGRFTISRDNAKNTVYLQMNSLKPEDTAVYYCNAASRRGSRKQAKYDYWGQGTQVTVSS	low polyreactivity

Reference: the nanobody polyreactivity screen of Harvey et al. (2022)
